Results as given in patent US20230235013A1 (MABSOLVE, published 2023).
Residue numbers refer to the chain shown, from its start. Names and notes keep the numbering of the source. Values belong to the binder of their own block, whether it stands above or below them.

What was measured:
[1] = molecular target: T1, human FcRn (R&D Systems Cat. No. 8639-Fc) (human, UniProt P55899 24-297; P61769 21-119); test: SPR, FcRn captured; Mean
[2] = molecular target: T1, human FcRn (R&D Systems Cat. No. …); test: SPR, FcRn captured; Expt 1
[3] = molecular target: T1, human FcRn (R&D Systems Cat. No. …); test: SPR, FcRn captured; Expt 2
[4] = molecular target: T1, human FcRn (R&D Systems Cat. No. …); test: SPR, FcRn captured; Expt 3
[5] = molecular target: T2, Histidine-tagged recombinant human FcγRI (CD64) (human, UniProt P12314 16-288, limits assumed); test: SPR, His-FcγRI captured; mean;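 note: biacore T200 SPR at 25 °C, anti-His surface capturing FcγRI, Fc-variant antibodies injected at 100 µg/mL for 1 min, signal near injection end minus third buffer blank, three repeats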
T2 construct: bought

[6] = molecular target: T2, Histidine-tagged recombinant human …; test: SPR, His-FcγRI captured; Expt 1;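 note: SPR at 25 °C on anti-His antibody chip capturing FcγRI, Fc-variant antibodies injected at 100 µg/mL for 1 min, signal near end of injection minus buffer blank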
[7] = molecular target: T2, Histidine-tagged recombinant human …; test: SPR, His-FcγRI captured; Expt 2;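 note: biacore T200 SPR at 25 °C, Fc-variant antibodies at 100 µg/mL flowed 1 min over anti-His-captured receptor, signal read near injection end minus third buffer blank; antibody analyte injected at 100 µg/mL for 1 min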
[8] = molecular target: T2, Histidine-tagged recombinant human …; test: SPR, His-FcγRI captured; Expt 3;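 note: biacore T200 SPR at 25 °C, Fc-variant antibodies at 100 µg/mL flowed 1 min over anti-His-captured FcγRI, signal taken just before injection end minus a buffer blank cycle; antibody analyte injected at 100 µg/mL for 1 min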
[9] = molecular target: T3, Human C1q (Sigma Cat. No. 20476), HRP-labelled (human, UniProt P02745 23-245; P02746 28-253; P02747 29-245); test: ELISA, antibody coated, HRP-C1q; Expt 1, buffer alone 0.061
T3 construct: Coupled to horse-radish peroxidase with Lightning-Link kit; also called HRP-labelled C1q

B1: anti-CD20 (rituximab) human IgG1 L234A/L235A/K322A (antibody)
heavy: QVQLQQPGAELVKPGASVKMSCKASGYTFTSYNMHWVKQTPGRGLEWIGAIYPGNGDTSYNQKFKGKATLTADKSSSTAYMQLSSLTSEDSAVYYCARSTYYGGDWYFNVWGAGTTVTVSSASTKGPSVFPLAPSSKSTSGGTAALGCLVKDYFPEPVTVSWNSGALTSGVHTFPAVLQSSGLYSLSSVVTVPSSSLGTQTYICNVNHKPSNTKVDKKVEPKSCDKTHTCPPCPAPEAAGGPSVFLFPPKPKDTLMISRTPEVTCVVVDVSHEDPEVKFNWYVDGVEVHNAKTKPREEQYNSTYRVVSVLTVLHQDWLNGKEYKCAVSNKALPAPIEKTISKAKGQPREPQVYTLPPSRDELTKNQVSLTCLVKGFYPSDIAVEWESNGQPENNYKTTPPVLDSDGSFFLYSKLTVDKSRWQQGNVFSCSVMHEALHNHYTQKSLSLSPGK
light: QIVLSQSPAILSASPGEKVTMTCRASSSVSYIHWFQQKPGSSPKPWIYATSNLASGVPVRFSGSGSGTSYSLTISRVEAEDAATYYCQQWTSNPPTFGGGTKLEIKRTVAAPSVFIFPPSDEQLKSGTASVVCLLNNFYPREAKVQWKVDNALQSGNSQESVTEQDSKDSTYSLSSTLTLSKADYEKHKVYACEVTHQGLSSPVTKSFNRGEC
notes: EU numbering; also called 2-74; copies: 2 + 2
Corrected and normalised response (% of wild-type reference) [1]: 94 % of wild-type reference
Corrected and normalised response (% of wild-type reference) [2]: 94 % of wild-type reference
Corrected and normalised response (% of wild-type reference) [3]: 94.7 % of wild-type reference
Corrected and normalised response (% of wild-type reference) [4]: 93.3 % of wild-type reference

B2: anti-CD20 human IgG1 L234Q/L235D/G236R (antibody)
heavy: QVQLQQPGAELVKPGASVKMSCKASGYTFTSYNMHWVKQTPGRGLEWIGAIYPGNGDTSYNQKFKGKATLTADKSSSTAYMQLSSLTSEDSAVYYCARSTYYGGDWYFNVWGAGTTVTVSSASTKGPSVFPLAPSSKSTSGGTAALGCLVKDYFPEPVTVSWNSGALTSGVHTFPAVLQSSGLYSLSSVVTVPSSSLGTQTYICNVNHKPSNTKVDKKVEPKSCDKTHTCPPCPAPEQDRGPSVFLFPPKPKDTLMISRTPEVTCVVVDVSHEDPEVKFNWYVDGVEVHNAKTKPREEQYNSTYRVVSVLTVLHQDWLNGKEYKCKVSNKALPAPIEKTISKAKGQPREPQVYTLPPSRDELTKNQVSLTCLVKGFYPSDIAVEWESNGQPENNYKTTPPVLDSDGSFFLYSKLTVDKSRWQQGNVFSCSVMHEALHNHYTQKSLSLSPGK
light: B1 light
notes: also called 2-28
Corrected response (RU), Mean [5]: 3.8 RU
Corrected response (RU) [6]: 4.3 RU
Corrected response (RU) [7]: 2.7 RU
Corrected response (RU) [8]: 4.4 RU

B3: anti-CD20 (rituximab) human IgG1 L234K/L235S/G236R (antibody)
heavy: B2 heavy with Q238K, D239S
light: B1 light
notes: EU numbering; also called 2-24; 1-89; copies: 2 + 2
Corrected and normalised response (% of wild-type reference) [1]: 100 % of wild-type reference
Corrected and normalised response (% of wild-type reference) [2]: 100 % of wild-type reference
Corrected and normalised response (% of wild-type reference) [3]: 99.7 % of wild-type reference
Corrected and normalised response (% of wild-type reference) [4]: 100 % of wild-type reference

B4: anti-CD20 (rituximab) human IgG1 L234S/L235H/G236R (antibody)
heavy: B2 heavy with Q238S, D239H
light: B1 light
notes: EU numbering; also called 2-48; copies: 2 + 2
Mean Absorbance [9]: 0.04 absorbance (450 nm)

B6: anti-CD20 human IgG1 L234Q/L235H/G236R (antibody)
heavy: B2 heavy with D239H
light: B1 light
notes: also called 2-29
Corrected response (RU), Mean [5]: 5.7 RU
Corrected response (RU) [6]: 2.2 RU
Corrected response (RU) [7]: 6.7 RU
Corrected response (RU) [8]: 8.1 RU

B8: anti-CD20 (rituximab) human IgG1 L234R/L235K/G236R (antibody)
heavy: B2 heavy with Q238R, D239K
light: B1 light
notes: EU numbering; also called 2-40; copies: 2 + 2
Mean Absorbance [9]: 0.055 absorbance (450 nm)

B9: anti-CD20 human IgG1 L234Q/G236R (antibody)
heavy: not shown
light: B1 light
notes: also called 2-30
Corrected response (RU), Mean [5]: 39.3 RU
Corrected response (RU) [6]: 41.9 RU
Corrected response (RU) [7]: 27 RU
Corrected response (RU) [8]: 49 RU

B11: anti-CD20 (rituximab) human IgG1 L234S/L235R/G236R (antibody)
heavy: B2 heavy with Q238S, D239R
light: B1 light
notes: EU numbering; also called 2-51; copies: 2 + 2
Mean Absorbance [9]: 0.037 absorbance (450 nm)

B12: anti-CD20 (rituximab) human IgG1 L234F/L235E/P331S (antibody)
heavy: B2 heavy with Q238F, D239E, R240G, P335S
light: B1 light
notes: EU numbering; also called 2-75; copies: 2 + 2
Corrected and normalised response (% of wild-type reference) [1]: 96.5 % of wild-type reference
Corrected and normalised response (% of wild-type reference) [2]: 96.1 % of wild-type reference
Corrected and normalised response (% of wild-type reference) [3]: 97.1 % of wild-type reference
Corrected and normalised response (% of wild-type reference) [4]: 96.3 % of wild-type reference

B16: anti-CD20 (rituximab) human IgG1 L234R/L235H/G236R (antibody)
heavy: B2 heavy with Q238R, D239H
light: B1 light
notes: EU numbering; also called 2-38; copies: 2 + 2
Mean Absorbance [9]: 0.062 absorbance (450 nm)

B17: anti-CD20 (rituximab) human IgG1 L234T/L235R/G236R (antibody)
heavy: B2 heavy with Q238T, D239R
light: B1 light
notes: EU numbering; also called 2-61; copies: 2 + 2
Mean Absorbance [9]: 0.047 absorbance (450 nm)

B18: anti-CD20 (rituximab) human IgG1 L234R/L235I/G236R (antibody)
heavy: B2 heavy with Q238R, D239I
light: B1 light
notes: EU numbering; also called 2-39; copies: 2 + 2
Mean Absorbance [9]: 0.169 absorbance (450 nm)

B20: anti-CD20 (rituximab) human IgG1 L234Q/L235T/G236R (antibody)
heavy: B2 heavy with D239T
light: B1 light
notes: EU numbering; also called 1-120; copies: 2 + 2
Corrected and normalised response (% of wild-type reference) [1]: 95.3 % of wild-type reference
Corrected and normalised response (% of wild-type reference) [2]: 95.6 % of wild-type reference
Corrected and normalised response (% of wild-type reference) [3]: 95.1 % of wild-type reference
Corrected and normalised response (% of wild-type reference) [4]: 95.2 % of wild-type reference

The remaining lines, values ahead:

Corrected response (RU), Mean [5]: 32.4 RU
Corrected response (RU) [6]: 6 RU
Corrected response (RU) [7]: 28.9 RU
Corrected response (RU) [8]: 62.3 RU
B5: anti-CD20 human IgG1 L234T/L235D/G236R (antibody)
heavy: B2 heavy with Q238T
light: B1 light
notes: also called 2-55

Corrected response (RU), Mean [5]: 5.4 RU
Corrected response (RU) [6]: 4.3 RU
Corrected response (RU) [7]: 4.8 RU
Corrected response (RU) [8]: 7.2 RU
B7: anti-CD20 human IgG1 L234T/L235A/G236R (antibody)
heavy: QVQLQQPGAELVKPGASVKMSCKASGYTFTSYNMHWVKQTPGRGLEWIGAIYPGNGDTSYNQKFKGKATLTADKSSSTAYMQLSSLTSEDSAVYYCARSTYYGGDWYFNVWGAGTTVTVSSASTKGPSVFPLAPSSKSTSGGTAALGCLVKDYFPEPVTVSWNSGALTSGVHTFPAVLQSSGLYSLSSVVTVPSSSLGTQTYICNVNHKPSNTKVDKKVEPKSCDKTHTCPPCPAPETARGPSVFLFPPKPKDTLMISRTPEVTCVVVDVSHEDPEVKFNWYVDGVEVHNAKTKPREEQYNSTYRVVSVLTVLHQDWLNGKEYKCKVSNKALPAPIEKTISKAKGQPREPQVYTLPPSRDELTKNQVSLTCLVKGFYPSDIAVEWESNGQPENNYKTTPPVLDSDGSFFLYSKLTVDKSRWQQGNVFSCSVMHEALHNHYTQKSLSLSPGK
light: B1 light
notes: also called 2-54; 1-152

Corrected response (RU), Mean [5]: 1.8 RU
Corrected response (RU) [6]: 0.4 RU
Corrected response (RU) [7]: 0.9 RU
Corrected response (RU) [8]: 4.2 RU
B10: anti-CD20 human IgG1 L234R/L235D/G236R (antibody)
heavy: B2 heavy with Q238R
light: B1 light

Corrected response (RU), Mean [5]: 4.8 RU
Corrected response (RU) [6]: 3.9 RU
Corrected response (RU) [7]: 4.2 RU
Corrected response (RU) [8]: 6.4 RU
B13: anti-CD20 human IgG1 L234S/L235I/G236R (antibody)
heavy: B2 heavy with Q238S, D239I
light: B1 light
notes: also called 2-49

Corrected response (RU), Mean [5]: 16.2 RU
Corrected response (RU) [6]: 7.2 RU
Corrected response (RU) [7]: 17.3 RU
Corrected response (RU) [8]: 24.2 RU
B14: anti-CD20 human IgG1 L234T/L235I/G236R (antibody)
heavy: B2 heavy with Q238T, D239I
light: B1 light
notes: also called 2-57; 1-157

Corrected response (RU), Mean [5]: 3.9 RU
Corrected response (RU) [6]: -0.2 RU
Corrected response (RU) [7]: 2.6 RU
Corrected response (RU) [8]: 9.4 RU
B15: anti-CD20 human IgG1 L234Q/L235R/G236R (antibody)
heavy: B2 heavy with D239R
light: B1 light
notes: also called 2-32

Corrected response (RU), Mean [5]: 28.7 RU
Corrected response (RU) [6]: 33.7 RU
Corrected response (RU) [7]: 21.6 RU
Corrected response (RU) [8]: 30.9 RU
B19: anti-CD20 human IgG1 L234S/G236R (antibody)
heavy: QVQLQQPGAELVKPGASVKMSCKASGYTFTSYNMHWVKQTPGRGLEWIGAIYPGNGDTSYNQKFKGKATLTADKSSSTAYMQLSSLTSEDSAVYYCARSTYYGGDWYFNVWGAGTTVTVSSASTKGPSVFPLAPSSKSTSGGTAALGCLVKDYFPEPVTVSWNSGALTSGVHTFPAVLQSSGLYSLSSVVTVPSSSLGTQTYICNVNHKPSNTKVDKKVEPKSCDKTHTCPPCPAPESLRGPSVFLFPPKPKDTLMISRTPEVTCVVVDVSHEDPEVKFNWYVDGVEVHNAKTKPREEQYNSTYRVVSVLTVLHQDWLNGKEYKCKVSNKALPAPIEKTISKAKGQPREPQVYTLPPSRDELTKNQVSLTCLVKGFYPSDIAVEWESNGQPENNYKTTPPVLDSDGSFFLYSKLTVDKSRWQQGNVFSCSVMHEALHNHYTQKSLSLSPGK
light: B1 light
notes: also called 2-50

Corrected response (RU), Mean [5]: 5.3 RU
Corrected response (RU) [6]: 3.7 RU
Corrected response (RU) [7]: 5.3 RU
Corrected response (RU) [8]: 6.9 RU
B21: anti-CD20 human IgG1 L234S/L235E/G236R (antibody)
heavy: B2 heavy with Q238S, D239E
light: B1 light
notes: also called 2-46
